In patent publication US20230212319A1, “NOVEL ANTIGEN BINDING DOMAINS AND SYNTHETIC ANTIGEN RECEPTORS INCORPORATING THE SAME” (University of Southern California, priority 2020, published 2023):
Entries after “also recorded” stand apart in the source; their conditions may differ.

Assays:
LNCaP-LucPPe cells = assay: LNCaP-LucPPE xenograft in NSG mice, with rechallenge; format: in vivo; settings: for tumor control (bioluminescence imaging, caliper tumor volume), LNCaP-LucPPE xenograft: 1 × 10^6 LNCaP-LucPPe s.c., 17 days later 3 × 10^6 T cells i.v., male NSG mice
RAJI cells = assay: JNG (Jurkat NFAT-GFP) cells expressing SAR: GFP induction on co-culture with RAJI; settings: CD19 hu-mROO5-1 SIRs with deletion mutants of TCR constant chains; flow cytometry

B1: 9970 (protein)
chain: MALPVTALLLPLALLLHAARPDIVMTQSHKFMSTSVGDRVSIICKASQDVGTAVDWYQQKPGQSPKLLIYWASTRHTGVPDRFTGSGSGTDFTLAITNVQSEDLADYFCQQYNSYPLTFGAGTKLEIKRLEDLKNVFPPEVAVFEPSEAEISHTQKATLVCLATGFYPDHVELSWWVNGKEVHSGVCTDPQPLKEQPALNDSRYCLSSRLRVSATFWQNPRNHFRCQVQFYGLSENDEWTQDRAKPVTQIVSAEAWGRADCGFTSESYQQGVLSATILYEILLGKATLYAVLVSALVLMAMVKRKDSRGRAKRSGSGATNFSLLKQAGDVEENPGPTSMDWIWRILFLVGAATGAHSFEEVQLVESGGGLVQPGGSLRLSCAASGYTFTEYTIHWVRQAPGKGLEWVANINPNNGGTTYNQKFEDRFTISRDNSKNTLYLQMNSLRAEDTAVYYCARGWNFDYWGQGTLVTVSSTRIQNPDPAVYQLRDSKSSDKSVCLFTDFDSQTNVSQSKDSDVYITDKCVLDMRSMDFKSNSAVAWSNKSDFACANAFNNSIIPEDTFFPSPESSCDVKLVEKSFETDTNLNFQNLSVIGFRILLLKVAGFNLLMTLRLWSS
modifications: Synthetic Polynucloetide
tumor control (bioluminescence imaging, caliper tumor volume), LNCaP-LucPPE xenograft (LNCaP-LucPPe cells): statistically significant and effective tumor control

B2: 9762 (protein)
chain: MALPVTALLLPLALLLHAARPDIQMTQSPSSLSASVGDRVTITCKASQDVGTAVDWYQQKPGKAPKLLIYWASTRHTGVPSRFSGSGSGTDFTLTISSLQPEDFATYYCQQYNSYPLTFGQGTKVEIKRLEDLKNVFPPEVAVFEPSKAEIAHTQKATLVCLATGFYPDHVELSWWVNGKEVHSGVCTDPQPLKEQPALNDSRYCLSSRLRVSATFWQNPRNHFRCQVQFYGLSENDEWTQDRAKPVTQIVSAEAWGRADCGITSASYHQGVLSATILYEILLGKATLYAVLVSALVLMAMVKRKDSRGRAKRSGSGATNFSLLKQAGDVEENPGPTSMDWIWRILFLVGAATGAHSFEEVQLVESGGGLVQPGGSLRLSCAASGYTFTEYTIHWVRQAPGKGLEWVANINPNNGGTTYNQKFEDRFTISRDNSKNTLYLQMNSLRAEDTAVYYCARGWNFDYWGQGTLVTVSSTRIQNPDPAVYQLRDSKSSDKSVCLFTDFDSQTNVSQSKDSDVYITDKCVLDMRSMDFKSNSAVAWSNKSDFACANAFNNSIIPEDTFFPSSDVPCDVKLVEKSFETDTNLNFQNLSVIGFRILLLKVAGFNLLMTLRLWSSRAKRSGSGVKQTLNFDLLKLAGDVESNPGPSRGHMTEYKPTVRLATRDDVPRAVRTLAAAFADYPATRHTVDPDRHIERVTELQELFLTRVGLDIGKVWVADDGAAVAVWTTPESVEAGAVFAEIGPRMAELSGSRLAAQQQMEGLLAPHRPKEPAWFLATVGVSPDHQGKGLGSAVVLPGVEAAERAGVPAFLETSAPRNLPFYERLGFTVTADVEVPEGPRTWCMTRKPGA
modifications: Synthetic Polynucloetide
tumor control (bioluminescence imaging, caliper tumor volume), LNCaP-LucPPE xenograft (LNCaP-LucPPe cells): statistically significant and effective tumor control

B3: 22641 (protein)
chain: MALPVTALLLPLALLLHAARPDIQMTQSPSSLSASVGDRVTITCKASDHINNWLAWYQQKPGQAPKLLIYGATTLETGVPSRFSGSGSGTDYTLTISSLQPEDFATYYCQQSWNTPWTFGQGTKLEIKRLEAEISHTQKATLVCLATGFYPDHVELSWWVNGKEVHSGVCTDPQPLKEQPALNDSRYCLSSRLRVSATFWQNPRNHFRCQVQFYGLSENDEWTQDRAKPVTQIVSAEAWGRADCGFTSESYQQGVLSATILYEILLGKATLYAVLVSALVLMAMVKRKDSRGRAKRSGSGATNFSLLKQAGDVEENPGPTSMDWIWRILFLVGAATGAHSFEQVQLQQPGAELVKPGASVKMSCKASGYAFSSYWINWMKQKPGQGLEWIGQIYPGDGDTNYNGKFKGRATLTADTSSSTAYMQLSSLTSEDSAVYFCARSITTVVGCAMDYWGQGTSVTVSSTRDKSVCLFTDFDSQTNVSQSKDSDVYITDKCVLDMRSMDFKSNSAVAWSNKSDFACANAFNNSIIPEDTFFPSPESSCDVKLVEKSFETDTNLNFQNLSVIGFRILLLKVAGFNLLMTLRLWSSRAKRSGSGVKQTLNFDLLKLAGDVESNPGPSRGHMTEYKPTVRLATRDDVPRAVRTLAAAFADYPATRHTVDPDRHIERVTELQELFLTRVGLDIGKVWVADDGAAVAVWTTPESVEAGAVFAEIGPRMAELSGSRLAAQQQMEGLLAPHRPKEPAWFLATVGVSPDHQGKGLGSAVVLPGVEAAERAGVPAFLETSAPRNLPFYERLGFTVTADVEVPEGPRTWCMTRKPGA
Jurkat-NFAT ASSA Y: Raji (RAJI cells): significant GFP induction

B4: 9901 (protein)
chain: MALPVTALLLPLALLLHAARPDIQMTQSPSSLSASVGDRVTITCKASQDVGTAVDWYQQKPGKAPKLLIYWASTRHTGVPSRFSGSGSGTDFTLTISSLQPEDFATYYCQQYNSYPLTFGQGTKVEIKRLEDLKNVFPPEVAVFEPSEAEISHTQKATLVCLATGFYPDHVELSWWVNGKEVHSGVCTDPQPLKEQPALNDSRYCLSSRLRVSATFWQNPRNHFRCQVQFYGLSENDEWTQDRAKPVTQIVSAEAWGRADCGFTSESYQQGVLSATILYEILLGKATLYAVLVSALVLMAMVKRKDSRGRAKRSGSGATNFSLLKQAGDVEENPGPTSMDWIWRILFLVGAATGAHSFEEVQLQQSGPELVKPGTSVRISCKTSGYTFTEYTIHWVKQSHGKSLEWIGNINPNNGGTTYNQKFEDKATLTVDKSSSTAYMELRSLTSEDSAVYYCAAGWNFDYWGQGTTLTVSSTRIQNPDPAVYQLRDSKSSDKSVCLFTDFDSQTNVSQSKDSDVYITDKCVLDMRSMDFKSNSAVAWSNKSDFACANAFNNSIIPEDTFFPSPESSCDVKLVEKSFETDTNLNFQNLSVIGFRILLLKVAGFNLLMTLRLWSS
modifications: Synthetic Polynucloetide
tumor control (bioluminescence imaging, caliper tumor volume), LNCaP-LucPPE xenograft (LNCaP-LucPPe cells): effective control of tumor; also recorded: statistically significant and effective tumor control
survival, LNCaP-LucPPE xenograft (LNCaP-LucPPe cells; mouse, in vivo): improvement in survival

B5: 22652 (protein)
chain: MALPVTALLLPLALLLHAARPDIQMTQSPSSLSASVGDRVTITCKASDHINNWLAWYQQKPGQAPKLLIYGATTLETGVPSRFSGSGSGTDYTLTISSLQPEDFATYYCQQSWNTPWTFGQGTKLEIKRLEVSPKPTIFLPSIAETKLQKAGTYLCLLEKFFPDVIKIHWQEKKSNTILGSQEGNTMKTNDTYMKFSWLTVPEKSLDKEHRCIVRHENNKNGVDQEIIFPPIKTDVITMDPKDNCSKDANDTLLLQLTNTSAYYMYLLLLLKSVVYFAIITCCLLRRTAFCCNGEKSRAKRSGSGATNFSLLKQAGDVEENPGPTSMDWIWRILFLVGAATGAHSFEQVQLQQPGAELVKPGASVKMSCKASGYAFSSYWINWMKQKPGQGLEWIGQIYPGDGDTNYNGKFKGRATLTADTSSSTAYMQLSSLTSEDSAVYFCARSITTVVGCAMDYWGQGTSVTVSSTRPHTKPSVFVMKNGTNVACLVKEFYPKDIRINLVSSKKITEFDPAIVISPSGKYNAVKLGKYEDSNSVTCSVQHDNKTVHSTDFEVKTDSTDHVKPKETENTKQPSKSCHKPKAIVHTEKVNMMSLTVLGLRMLFAKTVAVNFLLTAKLFFLRAKRSGSGVKQTLNFDLLKLAGDVESNPGPSRGHMTEYKPTVRLATRDDVPRAVRTLAAAFADYPATRHTVDPDRHIERVTELQELFLTRVGLDIGKVWVADDGAAVAVWTTPESVEAGAVFAEIGPRMAELSGSRLAAQQQMEGLLAPHRPKEPAWFLATVGVSPDHQGKGLGSAVVLPGVEAAERAGVPAFLETSAPRNLPFYERLGFTVTADVEVPEGPRTWCMTRKPGA
Jurkat-NFAT ASSA Y: Raji (RAJI cells): significant residual activity

B6: 22651 (protein)
chain: MALPVTALLLPLALLLHAARPDIQMTQSPSSLSASVGDRVTITCKASDHINNWLAWYQQKPGQAPKLLIYGATTLETGVPSRFSGSGSGTDYTLTISSLQPEDFATYYCQQSWNTPWTFGQGTKLEIKRLEADVSPKPTIFLPSIAETKLQKAGTYLCLLEKFFPDVIKIHWQEKKSNTILGSQEGNTMKTNDTYMKFSWLTVPEKSLDKEHRCIVRHENNKNGVDQEIIFPPIKTDVITMDPKDNCSKDANDTLLLQLTNTSAYYMYLLLLLKSVVYFAIITCCLLRRTAFCCNGEKSRAKRSGSGATNFSLLKQAGDVEENPGPTSMDWIWRILFLVGAATGAHSFEQVQLQQPGAELVKPGASVKMSCKASGYAFSSYWINWMKQKPGQGLEWIGQIYPGDGDTNYNGKFKGRATLTADTSSSTAYMQLSSLTSEDSAVYFCARSITTVVGCAMDYWGQGTSVTVSSTRPHTKPSVFVMKNGTNVACLVKEFYPKDIRINLVSSKKITEFDPAIVISPSGKYNAVKLGKYEDSNSVTCSVQHDNKTVHSTDFEVKTDSTDHVKPKETENTKQPSKSCHKPKAIVHTEKVNMMSLTVLGLRMLFAKTVAVNFLLTAKLFFLRAKRSGSGVKQTLNFDLLKLAGDVESNPGPSRGHMTEYKPTVRLATRDDVPRAVRTLAAAFADYPATRHTVDPDRHIERVTELQELFLTRVGLDIGKVWVADDGAAVAVWTTPESVEAGAVFAEIGPRMAELSGSRLAAQQQMEGLLAPHRPKEPAWFLATVGVSPDHQGKGLGSAVVLPGVEAAERAGVPAFLETSAPRNLPFYERLGFTVTADVEVPEGPRTWCMTRKPGA
Jurkat-NFAT ASSA Y: Raji (RAJI cells): significant residual activity
